# Test results taken from patent US20210347873A1 (SHANGHAI PHARMAEXPLORER, published 2021).
# T1: cynomolgus BLyS (full length, arginine to histidine at position 132) on CHO-K1 cells (cynomolgus, UniProt Q9Y275 1-285 (human entry))
# T1 construct: also called cyno BLyS; CHO-K1 cynoBLyS
# T1 chain: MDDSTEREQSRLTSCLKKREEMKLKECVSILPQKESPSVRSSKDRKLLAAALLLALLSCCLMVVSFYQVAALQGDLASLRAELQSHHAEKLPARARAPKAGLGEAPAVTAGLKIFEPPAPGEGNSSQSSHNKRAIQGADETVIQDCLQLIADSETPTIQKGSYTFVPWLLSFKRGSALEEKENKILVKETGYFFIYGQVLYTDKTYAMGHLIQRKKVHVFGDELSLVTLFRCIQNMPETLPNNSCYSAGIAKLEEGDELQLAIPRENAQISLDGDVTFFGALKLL
# B1: 97A3C2H4 (antibody, V domains shown)
# VH: EVKLVESGGGLVQPGGSLKLSCAASGFTFSTYTMSWVRQTPEKRLEWVAYISYGGGSTSYPDTVKGRFTISRDNAKNTLYLQMSSLKSEDTAIYYCTRHVTVVENSMDYWGQGTSVTVSS
# VL: DILLTQSPDILSVSPGERVSFSCRASQSIGTSIHWYQQRTNGSPRLLIKYVSESFSGTPSRFSGSGSGTAFTLTINSVESEDIADYYCQQTHSWPWTFGGGTKLEIK
# notes: Mouse hybridoma monoclonal antibody purified on Protein G
# B2: 2-1G11 (antibody, V domains shown)
# VH: EVQLVESRGGVVQPGRSLRLSCAASGFTFSSYGMHWVRQAPGKGLEWVAVISYDGSNKYYADSVKGRFTISRDNSKNTLYLQMNSLRAEDAAVYYCARDRVDILTGYSIYGMDVWGQGTTVTVSS
# VL: EIVMTQSPATLSLSPGERATLSCRASQSVSSYLAWYQQKPGQAPRLLIYDASKRATGIPARFSGSGSGTDFTLTISSLEPEDFAVYYCQQRSNWPLTFGGGTKVEIK
# notes: From a human naive scFv phage library; also called human BLyS antibody 2-1G11
# B3: L9G7 (antibody, V domains shown)
# VH: QIQLVQSGAEVKKPGASVKVSCKASGYTFTSYGISWVRQAPGQGLEWMGWISAYNGNTNYAQKLQGRVTMTTDTSTSTAYMELRSLRSDDTAVYYCARTYYDILTGYYYYGMDVWGQGTTVTVSS
# VL: EIVLTQSPGTLSLSPGERATLSCRTSQSVDTYLAWYQQKPGQAPRLLIYDASNRATGIPARFSGSGSGTDFTLTISSLEPEDFAVYYCQQRSNWPLTFGGGTKVEIK
# notes: From a human naive scFv phage library; also called human BLyS antibody L9G7
# B4: L1D12 (antibody, V domains shown)
# VH: QVQLVQSGGGLVQPGGSLRLSCAASGFTVSSNYMSWVRQAPGKGLEWVSVIYSGGSTYYADSVKGRFTISRDNSKNTLYLQMNSLRAEDTAVYYCARGFHDILTGYGMDVWGQGTTVTVSS
# VL: SSELTQDPAVSVALGQTVRITCQGDSLRNYYAGWYQQKPGQAPVLVIYGKNNRPSGIPDRFSGSSSGNTASLTITGTQAEDEADYYCSSRDNSGTHLVEFGGGTKLTVL
# notes: From a human naive scFv phage library; also called human BLyS antibody L1D12; LID12
# Legend:
# mouse BLyS protein = mouse BLyS protein (mouse, UniProt Q9WU72 69-309); experiment: cell-based or functional assay
# [1] = molecular target: T2, human BLyS (full length, arginine to histidine at position 132) on CHO-K1 cells (human, UniProt Q9Y275 1-285); experiment: flow cytometry, CHO-K1 hBLyS cells, antibody 13.3 nM
# T2 construct: also called hBLyS; CHO-K1 hBLyS
# [2] = molecular target: T2, human BLyS (full length, arginine to …); experiment: flow cytometry, CHO-K1 hBLyS cells, antibody 2.67 nM
# [3] = molecular target: T2, human BLyS (full length, arginine to …); experiment: flow cytometry, CHO-K1 hBLyS cells, antibody 66.7 nM
# [4] = molecular target: T2, human BLyS (full length, arginine to …); experiment: flow cytometry, CHO-K1 hBLyS cells, antibody 0.107 nM
# [5] = molecular target: T2, human BLyS (full length, arginine to …); experiment: flow cytometry, CHO-K1 hBLyS cells, antibody 0.534 nM
# [6] = molecular target: T1, cynomolgus BLyS (full length, arginine …); experiment: flow cytometry, CHO-K1 cynoBLyS cells, antibody 13.3 nM
# [7] = molecular target: T1, cynomolgus BLyS (full length, arginine …); experiment: flow cytometry, CHO-K1 cynoBLyS cells, antibody 66.7 nM
# [8] = molecular target: T1, cynomolgus BLyS (full length, arginine …); experiment: flow cytometry, CHO-K1 cynoBLyS cells, antibody 0.534 nM
# Sequence of mouse BLyS protein (Q9WU72 69-309): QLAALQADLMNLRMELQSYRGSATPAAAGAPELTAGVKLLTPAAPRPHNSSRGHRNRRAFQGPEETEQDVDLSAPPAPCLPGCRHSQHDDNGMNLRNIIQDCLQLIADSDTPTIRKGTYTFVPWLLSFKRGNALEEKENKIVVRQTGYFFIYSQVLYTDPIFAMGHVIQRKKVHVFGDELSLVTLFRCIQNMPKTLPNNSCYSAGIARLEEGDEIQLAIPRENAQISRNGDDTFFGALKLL
# T2 sequence (Q9Y275 whole entry R130H): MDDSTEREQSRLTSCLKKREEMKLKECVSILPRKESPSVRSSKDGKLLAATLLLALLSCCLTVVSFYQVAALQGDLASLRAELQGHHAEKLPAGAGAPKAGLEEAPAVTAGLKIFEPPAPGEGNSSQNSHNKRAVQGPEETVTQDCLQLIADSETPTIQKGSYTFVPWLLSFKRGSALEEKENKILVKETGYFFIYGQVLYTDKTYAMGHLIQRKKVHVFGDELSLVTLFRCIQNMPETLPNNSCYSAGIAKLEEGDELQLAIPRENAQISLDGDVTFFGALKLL
Binder,"mouse B lymphocyte proliferation (OD450 nm), antibody 0 nM (mouse BLyS protein) [OD450 nm]","mouse B lymphocyte proliferation (OD450 nm), antibody 0.000256 nM (mouse BLyS protein) [OD450 nm]","mouse B lymphocyte proliferation (OD450 nm), antibody 0.00128 nM (mouse BLyS protein) [OD450 nm]","mouse B lymphocyte proliferation (OD450 nm), antibody 0.0064 nM (mouse BLyS protein) [OD450 nm]","mouse B lymphocyte proliferation (OD450 nm), antibody 0.032 nM (mouse BLyS protein) [OD450 nm]","mouse B lymphocyte proliferation (OD450 nm), antibody 0.16 nM (mouse BLyS protein) [OD450 nm]","mouse B lymphocyte proliferation (OD450 nm), antibody 0.8 nM (mouse BLyS protein) [OD450 nm]","mouse B lymphocyte proliferation (OD450 nm), antibody 4 nM (mouse BLyS protein) [OD450 nm]","mouse B lymphocyte proliferation (OD450 nm), antibody 20 nM (mouse BLyS protein) [OD450 nm]","mouse B lymphocyte proliferation (OD450 nm), antibody 100 nM (mouse BLyS protein) [OD450 nm]",MFI [1] [MFI],MFI [2] [MFI],MFI [3] [MFI],MFI [4] [MFI],MFI [5] [MFI],MFI [6] [MFI],MFI [7] [MFI],MFI [8] [MFI]
B1,2160,2210,2200,2250,2370,2300,2410,2430,2400,2320,460,448,525,158,340,943,987,682
B2,2320,2450,2560,2610,2470,2750,2820,2460,2680,2490,633,627,645,403,591,1450,1460,1400
B3,2100,2430,2480,2460,2340,2260,640,308,243,221,630,591,697,226,469,1280,1340,1010
B4,2340,2450,2610,2500,2460,2520,2410,2560,2460,2450,522,503,550,205,413,1130,1180,900
